A short description of this data set: protein stability index of a GFP-peptide fusion (yeast GPS) (PSI 1-4); higher = more stable; sorted into four equal gates, so the index is relative within each strain. The procedure, abridged:
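Plasmids isolated from each sorting gate were PCR-amplified and Illumina-sequenced, and barcodes assigned the reads to strains. The gates, four of equal size, were set by GFP/Cherry fluorescence ratio on mid-log cultures in leucine-free medium. These cultures were yeast carrying a pooled library of tiled 17-residue yeast protein peptides fused downstream of GFP on a plasmid that also expresses Cherry. The protein stability index is the sum of every gate's read frequency times its gate number.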

The values that follow come from the supplement of paper PMC9732359.

± gives the uncertainty stated by the source.

In the case of DVEENRSEFIESLLNWI [YJR042W/NUP85], the protein stability index by setting is: (doa10∆) 3.19 ± 0.12; (pdr5∆) 3.08 ± 0.085; (san1∆) 3.35 ± 0.14; (ubr1∆) 3.34 ± 0.069.
For the sequence EEKEEEAAEESDDDMGF [RPP1B], the protein stability index was determined as 3.19 ± 0.06 (doa10∆), 3.23 ± 0.065 (pdr5∆), 3.09 ± 0.048 (san1∆) and 3.31 ± 0.036 (ubr1∆).
FEQPSQREEAKKVVKKA [RPL27A]: the protein stability index came to 2.95 ± 0.15 (doa10∆), 3.28 ± 0.13 (pdr5∆), 3.13 ± 0.15 (san1∆) and 3.05 ± 0.14 (ubr1∆).
On to ENLFSKEEVCQGMEGTV [YMR129W/POM152], for which the protein stability index runs as follows: (doa10∆) 2.5 ± 0.073; (pdr5∆) 2.95 ± 0.073; (san1∆) 2.92 ± 0.054; (ubr1∆) 2.65 ± 0.089.
As to YYQRLRHMVDDKIHARA [RPB2], the protein stability index is 2.84 ± 0.28 (pdr5∆), 3.12 ± 0.12 (san1∆) and 2.77 ± 0.15 (ubr1∆).
Turning to QLGLQTVIRGNSIISLE [SMX2], the protein stability index was 2.22 ± 0.093 (doa10∆), 2.57 ± 0.077 (pdr5∆), 2.47 ± 0.07 (san1∆) and 2.25 ± 0.058 (ubr1∆).
The corresponding values for AKRIRVSHHATTFTHCE [RPB2] are 3.07 ± 0.07, 3.15 ± 0.074, 2.48 ± 0.09 and 2.88 ± 0.066.
As to KRAEKKAKERLQALKAN [SNF2], the protein stability index (doa10∆) is 2.72 ± 0.12, the protein stability index (pdr5∆) was 2.6 ± 0.15, the protein stability index (san1∆) was found to be 1.73 ± 0.12 and the protein stability index (ubr1∆) amounted to 1.3 ± 0.048.
The matching figures for VGLRSNTHAVLVALKRN [PRE5]: 1.2 ± 0.037, 1.45 ± 0.039, 1.15 ± 0.093 and 1.21 ± 0.033.
On to SEPIDLIIIEKKQKLIE [ITC1], for which the protein stability index is 2.87 ± 0.18 (san1∆) and 2.69 ± 0.13 (ubr1∆).
With DISGTMSGGGNHVAKGL [SMC4], the protein stability index is 3.19 ± 0.2 (doa10∆) and 3.25 ± 0.13 (san1∆).
On to HAKRKTVTSLDVVYALK [HHF1], for which the protein stability index came to 3.54 ± 0.18 (doa10∆), 3.57 ± 0.14 (pdr5∆), 3.19 ± 0.084 (san1∆) and 3.12 ± 0.12 (ubr1∆).
NTTVISDKQRRLLAKDA [DIS3]: the protein stability index came to 2.37 ± 0.051 (doa10∆), 2.23 ± 0.045 (pdr5∆), 2.06 ± 0.066 (san1∆) and 2.18 ± 0.045 (ubr1∆).
The matching figures for QHTSFQEAVNSLKGYKI [CSI1]: 3.15 ± 0.1, 3.21 ± 0.065, 3.35 ± 0.048 and 3.39 ± 0.067.
With CSRCGSVTRAGNIISSD [SIN4], the protein stability index was 3.33 ± 0.26 (pdr5∆) and 3.03 ± 0.22 (ubr1∆).
For LNDEYNYPQLTEDILKE [YCS4], the protein stability index was found to be 2.91 ± 0.15 (doa10∆), 3.12 ± 0.099 (pdr5∆), 3 ± 0.071 (san1∆) and 3.49 ± 0.085 (ubr1∆).
For GSDKQMFTQIYLERIEL [YML103C/NUP188], the protein stability index came out at 2.5 ± 0.095 (doa10∆), 2.36 ± 0.086 (pdr5∆), 1.62 ± 0.23 (san1∆) and 1.53 ± 0.048 (ubr1∆).
As for IKQQQQQQQQQNGQQPP [YML103C/NUP188], the protein stability index (doa10∆) came out at 2.31 ± 0.036, the protein stability index (pdr5∆) came out at 2.63 ± 0.039, the protein stability index (san1∆) worked out at 2.48 ± 0.04 and the protein stability index (ubr1∆) is 2.39 ± 0.034.
The corresponding values for VVVAETSPEKKDGGDKP [YAR002W/NUP60] are 2.85 ± 0.19, 3.23 ± 0.24, 2.72 ± 0.13 and 3.44 ± 0.2.
For the sequence TKENGDFTLPEDFAPLL [PRP8], the protein stability index by setting is: (pdr5∆) 2.78 ± 0.18; (ubr1∆) 3.2 ± 0.1.
As to NPEPNKKNIQKAKSNQT [IRR1], the protein stability index is, setting by setting: (doa10∆) 2.25 ± 0.062; (pdr5∆) 2.43 ± 0.062; (san1∆) 2.56 ± 0.13; (ubr1∆) 2.56 ± 0.051.
Consider SSEYETINISLSFSWAI [NUT1], for which the protein stability index turned out to be 1.51 ± 0.1 (doa10∆), 1.64 ± 0.16 (pdr5∆), 2.21 ± 0.13 (san1∆) and 2.4 ± 0.13 (ubr1∆).
The corresponding values for TPLSIKIMVAEWYLSHL [SRB8] are 2.83 ± 0.084, 2.59 ± 0.095, 2.18 ± 0.092 and 2.5 ± 0.063.
The corresponding values for PDEAIEKVFNAYPAARE [FAS1] are 2.94 ± 0.099, 3.22 ± 0.1, 3.11 ± 0.059 and 3.1 ± 0.093.
In the case of ENYSAMIFETIVDGKLK [FAS1], the protein stability index is 3.24 ± 0.22 (pdr5∆), 2.98 ± 0.13 (san1∆) and 3.09 ± 0.16 (ubr1∆).
In turn, KAALERLKVFEGIPPPY [RPL16A] registered a protein stability index (doa10∆) of 2.57 ± 0.096, a protein stability index (pdr5∆) of 2.84 ± 0.12, a protein stability index (san1∆) of 3.09 ± 0.092 and a protein stability index (ubr1∆) of 2.69 ± 0.085.
